Source: the supplement of paper PMC7877785
± gives the uncertainty stated by the source.

Assay: self-splicing fitness, log relative to wild type (ln ratio); higher = more splicing; Tetrahymena group I intron in knt gene, E. coli kanamycin selection, DiMSum; sequences stand for … in CUCUCU…GGAGGGAAAAGUUAUCAGGCAUGCACCUGGUAGCUAGUCUUUAAACCAAUAGAUUGCAUCGGUUUAAAAGGCAAGACCGUCAAAUUGCGGGAAAGGGGUCAACAGCCGUUCAGUACCAAGUCUCAGGGGAAACUUUGAGAUGGCCUUGCAAAGGGUAUGGUAAUAAGCUGACGGACAUGGUCCUAACCACGCAGCCAAGUCCUAAGUCAACAGAUCUUCUGUUGAUAUGGAUGCAGUUCACAGACUAAAUGUCGGUCGGGGAAGAUGUAUUCUUCUCAUAAGAUAUAGUCGGACCUCUCCUUAAUGGGAGCUAGCGGAUGAAGUGAUGCAACACUGGAGCCGCUGGGAACUAAUUUGUAUGCGAAAGUAUAUUGAUUAGUUUUGGAGUACUCGUGGUCG
How it was run: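 Six replicate transformations of E. coli BL21(DE3) with a pET-22b(+) library were grown overnight at 37°C or 30°C. The library randomised all eight P1ex-region intron nucleotides, the intron lying in the knt kanamycin-resistance gene, and plates were LB agar with or without 25 μg/mL kanamycin plus 100 μg/mL carbenicillin, 50 μM IPTG and 0.2% rhamnose. Pooled colonies were amplicon-sequenced on an Illumina HiSeq 2500, and fitness is the DiMSum error-weighted combination of wild-type-normalised replicate fold changes, kanamycin versus none.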

Sequence	self-splicing fitness (ln) (30 °C)	self-splicing fitness (ln) (37 °C)
AAGUAGCAAUAUUACGGAGG	-3.89 ± 0.33	-2.5 ± 0.33
UGUUAGCAAUAUUACGUUGU	-3.71 ± 0.28	-2.3 ± 0.17
GCUGAGCAAUAUUACGUACA	-2.45 ± 0.24	-2.88 ± 0.28
ACGCAGCAAUAUUACGCGCA	-0.215 ± 0.096	0.231 ± 0.11
CCAAAGCAAUAUUACGUGCU	-4.12 ± 0.18	-2.88 ± 0.18
GUGAAGCAAUAUUACGUACC	-1.07 ± 0.2	–
UUUAAGCAAUAUUACGUUUC	-3.96 ± 0.35	-3.19 ± 0.4
UCACAGCAAUAUUACGGGUA	-1.93 ± 0.13	-0.772 ± 0.1
GACCAGCAAUAUUACGCGGG	-3.03 ± 0.13	-2.79 ± 0.19
ACUUAGCAAUAUUACGAUUC	-2.3 ± 0.098	-0.823 ± 0.1
UACUAGCAAUAUUACGUCUG	-0.817 ± 0.07	-0.845 ± 0.086
AAGUAGCAAUAUUACGAAUG	-3.14 ± 0.24	-1.72 ± 0.14
GAUGAGCAAUAUUACGCAUC	-2.56 ± 0.25	-2.32 ± 0.28
CCCGAGCAAUAUUACGAGUG	-3.04 ± 0.17	-1.99 ± 0.13
GAGAAGCAAUAUUACGCUAU	-2.79 ± 0.19	-1.31 ± 0.16
AGGGAGCAAUAUUACGACAU	-2.607 ± 0.025	-2.17 ± 0.041
UUACAGCAAUAUUACGGCUG	-2.21 ± 0.17	-1.42 ± 0.2
AACCAGCAAUAUUACGAGGU	-3.14 ± 0.16	-2.53 ± 0.16
GGUCAGCAAUAUUACGGGGC	-4.04 ± 0.33	-1.11 ± 0.4

Sequence	self-splicing fitness (ln) (30 °C)	self-splicing fitness (ln) (37 °C)
CGCCAGCAAUAUUACGGAGG	-3.32 ± 0.18	-0.355 ± 0.12
AUAAAGCAAUAUUACGUGCC	-0.00478 ± 0.083	0.162 ± 0.12
GCUGAGCAAUAUUACGCUAU	-3.25 ± 0.19	-3.59 ± 0.28
ACACAGCAAUAUUACGGCCU	-0.094 ± 0.086	-0.0787 ± 0.12
GUUGAGCAAUAUUACGGGCU	-2.65 ± 0.26	-2.23 ± 0.49
UAGAAGCAAUAUUACGAUAG	-1.57 ± 0.15	-0.522 ± 0.15
GAAUAGCAAUAUUACGACGU	-0.363 ± 0.11	0.265 ± 0.13
AGGGAGCAAUAUUACGAGUU	-4.48 ± 0.46	-1.45 ± 0.19
GUACAGCAAUAUUACGAACG	-1.92 ± 0.17	-1.22 ± 0.19
UUUAAGCAAUAUUACGGGCU	-2.91 ± 0.3	-2.18 ± 0.3
AUUGAGCAAUAUUACGAAGA	-2.47 ± 0.25	-2.23 ± 0.35
CGUCAGCAAUAUUACGGCGU	-4.74 ± 0.34	-0.685 ± 0.19
UUGAAGCAAUAUUACGGUAG	-0.0974 ± 0.088	0.0801 ± 0.12
CUGAAGCAAUAUUACGUGCG	0.0994 ± 0.061	-0.325 ± 0.073
CAAUAGCAAUAUUACGGUGA	-2.83 ± 0.23	-2.09 ± 0.21
CCCCAGCAAUAUUACGCCGU	-3.04 ± 0.16	-2.23 ± 0.21
GAACAGCAAUAUUACGUCUG	-2.54 ± 0.079	-0.775 ± 0.077
GACCAGCAAUAUUACGGUUA	-0.367 ± 0.046	-0.221 ± 0.056
